Data on one molecule can be found in US20150098945A1 (Daiichi Sankyo, published 2015).

Assay [1] deals with N-terminal FLAG-tagged human ROBO1 (pCI-FLAG-hROBO1-transfected HEK293 cells) (human, UniProt Q9Y6N7 58-1651). Description: flow cytometry, HEK293 cells transfected with pCI-FLAG-hROBO1, anti-mouse IgG FITC; control histogram IgG. Here is the method: HEK293 cells were inoculated at a concentration of 1.2×10⁶ cells/dish or 1.5×10⁶ cells/dish to a 60-mm dish (manufactured by Corning Inc.) and cultured overnight in a DMEM medium containing 10% FBS at 37° C. under 5% CO₂ conditions. On the next day, the HEK293 cells were transfected with pCI-hROBO4, pCI-FLAG-hROBO1, pCI-hROBO2, or pCI-hROBO3 using FuGENE6 Transfection Reagent and further cultured overnight at 37° C. under 5% CO₂ conditions. On the next day, the expression vector-transfected cells were treated with TrypLE Express (manufactured by Life Technologies Corp.), washed with PBS containing 5% FBS, and then suspended in PBS containing 5% FBS. The obtained cell suspension was used in flow cytometry analysis.
Chain of N-terminal FLAG-tagged human ROBO1 (pCI-FLAG-hROBO1-transfected HEK293 cells) (Q9Y6N7 other isoform, or with tags, fused parts or gaps): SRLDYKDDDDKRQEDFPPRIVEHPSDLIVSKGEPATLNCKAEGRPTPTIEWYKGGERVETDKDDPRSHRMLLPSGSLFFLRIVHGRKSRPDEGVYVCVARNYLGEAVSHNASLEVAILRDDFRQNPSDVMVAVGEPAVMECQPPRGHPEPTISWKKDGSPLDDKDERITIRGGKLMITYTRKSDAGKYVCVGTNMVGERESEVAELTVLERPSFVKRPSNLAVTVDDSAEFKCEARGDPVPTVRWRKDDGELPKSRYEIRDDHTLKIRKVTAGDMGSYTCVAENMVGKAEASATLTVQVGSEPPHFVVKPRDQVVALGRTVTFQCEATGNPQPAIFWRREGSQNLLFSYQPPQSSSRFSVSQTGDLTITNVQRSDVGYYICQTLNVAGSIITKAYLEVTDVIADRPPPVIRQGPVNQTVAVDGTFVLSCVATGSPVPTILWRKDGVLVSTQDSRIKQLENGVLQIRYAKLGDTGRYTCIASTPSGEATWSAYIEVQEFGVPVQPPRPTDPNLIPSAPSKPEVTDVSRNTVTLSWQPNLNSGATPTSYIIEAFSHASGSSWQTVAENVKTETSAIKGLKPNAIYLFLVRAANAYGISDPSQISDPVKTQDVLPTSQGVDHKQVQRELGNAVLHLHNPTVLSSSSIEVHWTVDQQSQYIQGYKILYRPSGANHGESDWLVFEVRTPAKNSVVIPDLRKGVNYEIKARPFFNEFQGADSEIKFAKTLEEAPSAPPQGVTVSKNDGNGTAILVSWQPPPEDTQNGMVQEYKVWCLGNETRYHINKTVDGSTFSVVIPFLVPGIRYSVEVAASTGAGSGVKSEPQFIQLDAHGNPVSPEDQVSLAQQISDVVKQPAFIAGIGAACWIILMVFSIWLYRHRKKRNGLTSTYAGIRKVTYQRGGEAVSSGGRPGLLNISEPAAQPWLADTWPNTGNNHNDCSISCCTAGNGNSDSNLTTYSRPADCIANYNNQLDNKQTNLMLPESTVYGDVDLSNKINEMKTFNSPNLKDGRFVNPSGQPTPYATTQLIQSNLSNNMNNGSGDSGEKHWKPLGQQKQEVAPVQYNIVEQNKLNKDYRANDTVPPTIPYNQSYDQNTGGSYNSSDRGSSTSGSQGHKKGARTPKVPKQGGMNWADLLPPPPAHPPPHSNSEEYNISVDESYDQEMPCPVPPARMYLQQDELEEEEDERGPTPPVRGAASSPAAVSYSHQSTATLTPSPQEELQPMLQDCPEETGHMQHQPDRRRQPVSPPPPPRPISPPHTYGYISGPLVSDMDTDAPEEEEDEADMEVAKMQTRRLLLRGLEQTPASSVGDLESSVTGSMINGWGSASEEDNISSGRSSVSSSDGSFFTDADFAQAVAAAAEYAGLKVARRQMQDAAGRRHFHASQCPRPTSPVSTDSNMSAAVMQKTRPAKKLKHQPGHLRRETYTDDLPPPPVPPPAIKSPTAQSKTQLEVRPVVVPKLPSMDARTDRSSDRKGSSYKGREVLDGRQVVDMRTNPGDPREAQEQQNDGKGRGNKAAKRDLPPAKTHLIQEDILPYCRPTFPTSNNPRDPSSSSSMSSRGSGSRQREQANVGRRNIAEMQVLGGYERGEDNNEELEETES
Each cell suspension prepared in 4)-4-1 was centrifuged, and the supernatant was removed. […] Data was analyzed using Flowjo. The histogram of FITC fluorescence intensity was prepared. The antibody was determined to bind in a specific manner when the histogram of MAb1 was shifted to a stronger fluorescence intensity region compared with the histogram of the negative control Mouse IgG1 or Mouse IgG2a. […]
(In general: In flow cytometry, cells or beads pass a laser one at a time.)

Assay [2] deals with T1, N-terminal FLAG-tagged human ROBO4 extracellular region/domain deletion variant hROBO4-132 (human, UniProt Q8WZ75 132-1007).
T1 construct: On transfected HEK293 cells; also called pCI-FLAG-hROBO4-132; pCI-hROBO4-132
T1 sequence: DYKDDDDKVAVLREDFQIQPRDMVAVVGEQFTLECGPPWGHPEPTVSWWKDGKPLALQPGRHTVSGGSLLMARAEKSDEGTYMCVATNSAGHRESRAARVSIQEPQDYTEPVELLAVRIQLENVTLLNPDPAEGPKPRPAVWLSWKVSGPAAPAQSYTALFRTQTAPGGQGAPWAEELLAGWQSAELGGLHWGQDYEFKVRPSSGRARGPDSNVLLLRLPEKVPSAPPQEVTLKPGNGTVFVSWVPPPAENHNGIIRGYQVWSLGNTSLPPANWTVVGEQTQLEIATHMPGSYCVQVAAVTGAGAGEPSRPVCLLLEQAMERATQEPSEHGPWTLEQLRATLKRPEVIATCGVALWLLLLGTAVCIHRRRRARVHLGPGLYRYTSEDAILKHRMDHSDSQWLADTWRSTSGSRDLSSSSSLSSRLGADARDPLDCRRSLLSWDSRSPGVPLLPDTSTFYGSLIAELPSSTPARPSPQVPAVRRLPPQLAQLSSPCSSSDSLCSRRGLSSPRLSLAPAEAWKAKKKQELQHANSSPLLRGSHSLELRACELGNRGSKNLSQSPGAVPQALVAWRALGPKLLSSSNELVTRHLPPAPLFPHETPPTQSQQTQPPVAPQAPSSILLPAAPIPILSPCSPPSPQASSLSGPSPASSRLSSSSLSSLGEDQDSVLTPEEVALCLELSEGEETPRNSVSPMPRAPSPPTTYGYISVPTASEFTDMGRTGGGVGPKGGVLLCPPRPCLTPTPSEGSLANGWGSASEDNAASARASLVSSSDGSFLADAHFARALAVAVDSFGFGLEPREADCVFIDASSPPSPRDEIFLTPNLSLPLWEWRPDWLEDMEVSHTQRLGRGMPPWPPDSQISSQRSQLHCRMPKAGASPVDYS
Nature of the assay: flow cytometry, HEK293 cells transfected with pCI-FLAG-hROBO4-132, antibody at 10 µg/mL, anti-mouse IgG FITC; control histogram IgG (Mouse IgG2a). Here is the method: HEK293 cells were inoculated at a concentration of 1.5×10⁶ cells/dish to a 60-mm dish (manufactured by Corning Inc.) and cultured overnight in a DMEM medium containing 10% FBS at 37° C. under 5% CO₂ conditions. […] On the next day, the expression vector-transfected cells were treated with TrypLE Express (manufactured by Life Technologies Corp.), washed with PBS containing 5% FBS, and then suspended in PBS containing 5% FBS. The obtained cell suspension was used in flow cytometry analysis.
Each cell suspension prepared in 4)-5-1 was centrifuged, and the supernatant was removed. Then, MAb1, a positive control Monoclonal ANTI-FLAG M2 antibody produced in mouse, or a negative control Mouse IgG2a was added at a concentration of 10 μg/mL to 2×10⁵ expression vector-transfected cells, and the resulting suspension was left standing at 4° C. for 1 hour. The cells were washed once with PBS containing 5% FBS. Then, Anti-Mouse IgG FITC conjugate diluted 1000-fold with PBS containing 5% FBS was added thereto, and the resulting suspension was left standing at 4° C. for 1 hour. […] Data was analyzed using Flowjo. The histogram of FITC fluorescence intensity was prepared. The antibody was determined to bind to a cell when the histogram of MAb1 was shifted to a stronger fluorescence intensity region compared with the histogram of the negative control Mouse IgG2a. […]

B1: anti-ROBO4 mouse monoclonal antibody MAb1 (antibody, mouse IgG1, V domains shown)
VH: EVQLVESGGGLVKPGGSLKLSCAASGFTFSTYAMSWVRQTPEKRLEWVATISNGGTYTYYPDSVKGRFTISRDNAENTLYLQMSSLRSEDTAMYFCARLIYYDYLDYWGHGTTLTVSS
VL: DAVMTQTPLSLPVSLGDQASISCRSSQSLENSNGNTYLNWYFQKPGQSPQLLIYRVSNRFSGVLDRFSGSGSGTDFTLKISRVEAEDFGVYFCLQVTHVPWTFGGGTKLEIKR
notes: Mouse IgG1 (gamma1), kappa light chain, purified from hybridoma supernatant; also called parent antibody MAb1
As to B1, the binding result was “no binding (tested: 10 µg/mL)” in assay [1] and “binds” in assay [2].
